From PMC4322367

Key:
Plk1 [1] = target: Plk1 (UniProt P53350); assay: GST pull-down of His-Plk1; conditions: reference: wild type; sites S12
Plk1 [2] = target: Plk1 (UniProt P53350); assay: co-IP of FLAG-Ataxin-10 and HA-Plk1; conditions: reference: wild type; sites S12

Ataxin-10 (from UniProt Q9UBB4) S12A
other: percent decrease vs wild type (Plk1 [1]): 20% | other: percent decrease vs wild type (Plk1 [2]): 30%
